From patent US20240199758A1, “METHOD FOR ALLOWING IMMUNE CELLS INFILTRATION IN TUMORS” (Alethia Biotherapeutics Inc., priority 2021, published 2024)
Where “and” joins values, the source holds several entries; their conditions need not be identical. Equal entries are not always repeated. Entries after “also recorded” stand apart in the source; their conditions may differ.

Experiments:
[1] = Non-clinical toxicity, weekly administration in monkeys
[2] = Non-clinical toxicity, weekly administration in rats; type: in vivo, Sprague-Dawley rats
Description: This finding most likely reflects a slight antigenic stimulation by AB-16B5 in these 2 regional lymph nodes.

tumor biopsies = test: Phase I study: necrosis in paired tumor biopsies; type: in vivo, human
Method: Tumor biopsies were collected during the standard dose escalation to investigate the presence of AB-16B5 within the tumor. A total of 4 pre-treatment and 5 post-treatment tumor biopsies were suitable for analysis. These post-treatment tumor biopsies were collected following dosing on Cycle 2 Day 15 (between Cycle 2 Day 15 and Cycle 2 Day 18). The biopsy sites were liver (n=2), lymph node (n=2), bladder, skin and vulva.
(§1) Immunohistochemistry studies were conducted on paired tumor biopsies to determine if the treatment with AB-16B5 was associated with a reacquisition of an epithelial phenotype.

[3] = Non-clinical pharmacokinetics, single and repeat-dose studies in monkeys; type: in vivo, Rhesus monkeys
Description: (§2) There was an approximate 70% increase in systemic exposure following repeated dosing from Day 1 to Day 26 which is consistent with the elimination half-life of AB-16B5 and the dosing intervals. […] The sCLU concentrations were generally back to their baseline levels after 3 to 5 days. The concurrent decrease in sCLU concentrations immediately following dosing with AB-16B5 is consistent with an antigen-sink phenomenon.

E-cadherin = test: Phase I study: immunohistochemistry on paired tumor biopsies, E-cadherin; type: in vivo, human
Method: as §1

[4] = Non-clinical pharmacokinetics, single and repeat-dose studies in rats; type: in vivo, Sprague-Dawley rats
Description: as §2

human tumor biopsies = test: Human tumor biopsies of patients treated with AB-16B5 as single agent (hematoxylin and eosin); type: in vivo; settings: on-treatment biopsy after the second cycle
Method: In parallel human tumor biopsies of patients treated with AB-16B5 as single agent were analyzed (FIGS. 2B-2E). Needle biopsies obtained from a patient with metastatic thyroid cancer and form a patient with inoperable metastatic gastric cancer were sectioned and stained with hematoxylin and eosin. An on-treatment biopsy from a patient with thyroid cancer metastasic to the lungs was obtained after the second cycle treatment with AB-16B5. […] Hemosiderin-laden macrophages were observed inside necrotic areas some reflecting red blood cell extravasation associated with necrosis (not shown).

[5] = tested on: frozen tissues from Rhesus monkey; test: Tissue cross-reactivity study, Rhesus monkey tissues; type: binding; settings: Rhesus monkey tissue panel, 2 and 10 μg/mL
Method: (§3) In addition, a tissue cross-reactivity study was conducted to determine the potential cross-reactivity of AB-16B5 with frozen tissues from human, Rhesus monkey, and Sprague-Dawley rat tissues.

sCLU = biological target: T1, sCLU (Macaca mulatta, UniProt F6S885); test: sCLU serum concentrations after single dose administration; type: in vivo; settings: Rhesus monkeys
T1 construct: from tissue; host or cells: serum of Rhesus monkeys (in vivo)
T1 sequence (F6S885 22-448): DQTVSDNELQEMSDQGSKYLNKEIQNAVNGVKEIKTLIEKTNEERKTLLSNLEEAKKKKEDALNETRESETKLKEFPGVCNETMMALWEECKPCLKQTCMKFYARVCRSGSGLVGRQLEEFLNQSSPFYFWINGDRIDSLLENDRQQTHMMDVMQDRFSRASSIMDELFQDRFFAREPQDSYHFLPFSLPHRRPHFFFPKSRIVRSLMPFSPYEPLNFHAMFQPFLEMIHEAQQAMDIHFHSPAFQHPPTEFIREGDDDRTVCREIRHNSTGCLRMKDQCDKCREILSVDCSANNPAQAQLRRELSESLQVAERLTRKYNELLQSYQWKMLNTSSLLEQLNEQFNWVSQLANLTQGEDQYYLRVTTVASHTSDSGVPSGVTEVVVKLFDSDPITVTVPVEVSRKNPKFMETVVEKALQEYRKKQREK
Description: as §2

vimentin = test: Phase I study: immunohistochemistry on paired tumor biopsies, vimentin; type: in vivo, human; settings: Subject 007, advanced gastric cancer
Method: as §1

[6] = tested on: frozen Sprague-Dawley rat tissues; test: Tissue cross-reactivity study, Sprague-Dawley rat tissues; type: binding; settings: Sprague-Dawley rat tissue panel, 2 and 10 μg/mL
Method: as §3

[7] = tested on: frozen tissues from human; test: Tissue cross-reactivity study, human tissues; type: binding; settings: human tissue panel, 2 and 10 μg/mL
Method: as §3

[8] = Phase I study AB-16B5-101: safety and tolerability
Method: The dose escalation was performed using 2 dose escalation schemes; the accelerated dose escalation scheme and the standard dose escalation scheme. Only 1 subject was enrolled in each of the first 2 cohorts as per protocol (accelerated dose escalation scheme).
Subjects received AB-16B5 by a 60-minute IV infusion once weekly on Days 1, 8 and 15 of each cycle of treatment.

[9] = thyroid cancer metastatic to the lungs, FIG. 2B

Substance: AB-16B5: humanized IgG2 monoclonal antibody targeting sCLU for the inhibition of cancer-associated EMT; light chain SEQ ID NO:11, heavy chain SEQ ID NO:12
- mean albumin, globulin, A/G and phosphorus levels ([1]; monkeys, 20, 60 and/or 100 mg/kg): Slight changes
- NOAEL ([1]; monkeys, weekly administration): 100 mg/kg/dose
- incidence of minimal lymphoid hypercellularity, mandibular lymph node ([2]; rat, in vivo): 1/20
- incidence of minimal lymphoid hypercellularity, mesenteric lymph node ([2]; rat, in vivo): 2/20
- reversibility of lymphoid hypercellularity ([2]; rat, in vivo): complete reversibility
- treatment-related clinical signs, changes in body weight, food consumption, ophthalmology, clinical pathology, organ weights ([2]; rat, in vivo): did not result in any treatment-related clinical signs
- treatment-related macroscopic changes ([2]; rat, in vivo): no treatment-related macroscopic changes
- No Observable Adverse Effect Level (NOAEL) ([2]; rats, weekly administration): 100 mg/kg/dose
- Necrosis Post-Treatment (tumor biopsies; Subject 006, Breast, biopsy site Skin (pre-treatment 0%)): 10%
- Necrosis Post-Treatment (tumor biopsies; Subject 007, Gastric, biopsy site Gastric (pre-treatment 0%)): 0%
- Necrosis Post-Treatment (tumor biopsies; Subject 012, Breast, biopsy site Skin (pre-treatment 0%)): 5%
- Necrosis Post-Treatment (tumor biopsies; Subject 013, Prostate, biopsy site Bladder (pre-treatment 0%)): 10%
- systemic exposure versus dose ([3]; monkeys): increased with increasing dose levels in a generally greater than dose proportional manner
- peak serum AB-16B5 concentrations ([3]; monkeys, infusion, single and repeat-dose): reached shortly after the start of infusion
- systemic exposure once weekly versus twice weekly ([3]; monkeys, repeated dosing): no notable differences in systemic exposure
- accumulation for AUC0-72 ([3]; repeated dosing): a lower extent of accumulation was observed
- drug accumulation in terms of Cmax ([3]; repeated dosing): no evidence of drug accumulation
- E-cadherin Expression in Post-Treatment (E-cadherin; Subject 006, Breast, biopsy site Skin): Increase
- E-cadherin Expression in Post-Treatment (E-cadherin; Subject 007, Gastric, biopsy site Gastric): Increase
- E-cadherin Expression in Post-Treatment (E-cadherin; Subject 012, Breast, biopsy site Skin): Decrease
- E-cadherin Expression in Post-Treatment (E-cadherin; Subject 013, Prostate, biopsy site Bladder): No change
- patients with increased E-cadherin expression after treatment (E-cadherin; paired tumor biopsies): 2 pts
- systemic exposure over 24 hours versus dose [4]: increased with increasing dose levels in a dose proportional manner
- increase in systemic exposure following repeated dosing ([4]; Day 1 to Day 26): ~70%
- peak serum AB-16B5 concentrations ([4]; infusion, single and repeat-dose): reached shortly after the start of infusion
- immune infiltrate in tumor fragments (human tumor biopsies; metastatic gastric cancer, FIG. 2E): infiltrated by a mix neutrophilic and mononucleated immune cells infiltrate
- immune infiltrate in tumor fragment (human tumor biopsies; [9]): A lymphoplasmacytic infiltrate was observed along the edge of the fragment
- necrosis of tumor fragments (human tumor biopsies; [9]): essentially all tumor fragments were necrotic
- AB-16B5 staining of tissue elements [5]: observed in a number of tissue elements
- membrane staining [5]: no membrane staining was observed
- sCLU serum concentrations following dosing (sCLU): decreased significantly
- vimentin expression after treatment (vimentin): loss of vimentin expression
- AB-16B5 staining of tissue elements [6]: observed in a number of tissue elements
- membrane staining [6]: no membrane staining was observed
- AB-16B5 staining of tissue elements [7]: observed in a number of tissue elements
- membrane staining [7]: no membrane staining was observed
- dose-related trend in the incidence of AEs ([8]; 1.5 to 12.0 mg/kg): no dose-related trend
- dose-limiting toxicity ([8]; 1.5 to 12.0 mg/kg once weekly, 15 subjects): No dose-limiting toxicity was observed; also recorded: No dose-limiting toxicities were identified
- subjects reporting SAEs ([8]; 5 of 15 subjects): 33%
- AEs of Grade 3 to 5 ([8]; 15 subjects): 12
- number of SAEs ([8]; 15 subjects): 6 and 5
- subjects reporting AEs of Grade 3 to 5 ([8]; 15 subjects): 8 subjects
- total AEs reported ([8]; 15 subjects, all causalities): 167
- safety and tolerability ([8]; 60-minute IV weekly infusion, doses up to 12 mg/kg): safe and well tolerated
- AEs of Grade 3 to 5 related to AB-16B5 ([8]; Grade 3 infusion related reaction and Grade 3 rash): 2
- deaths ([8]; Subjects 004 and 014, associated with progression of the disease): Two deaths were reported
- grade of drug-related AEs ([8]; in vivo): mainly of Grade 1 or 2
- most frequently reported AEs (all causalities) ([8]; in vivo): nausea, abdominal pain, back pain, vomiting, chills, dyspnea, constipation and pruritus
- most frequently reported AEs related to AB-16B5 ([8]; in vivo): nausea, pruritus, headache and rash
- relation of SAEs to AB-16B5 ([8]; in vivo): All SAEs were considered unrelated to AB-16B5; also recorded: none of which were judged related to the study treatment
- AEs related (possibly, probably or definitely) to AB-16B5 ([8]; out of 167 AEs): 68
- subjects who discontinued the study due to an adverse event ([8]; two subjects (004 and 011)): 13%
